Test results taken from patent publication US20260250420A1 (SICHUAN KELUN BIOTECH BIOPHARMACEUTICAL, published 2026).

T1: human PTK7 protein (extracellular sequence of human PTK7 with C-terminal 6×His tag) (human, UniProt Q13308 31-704)
T1 construct: extracellular domain; Expressed transiently in HEK293 cells; also called human PTK7-His; human PTK7-His protein
T1 sequence: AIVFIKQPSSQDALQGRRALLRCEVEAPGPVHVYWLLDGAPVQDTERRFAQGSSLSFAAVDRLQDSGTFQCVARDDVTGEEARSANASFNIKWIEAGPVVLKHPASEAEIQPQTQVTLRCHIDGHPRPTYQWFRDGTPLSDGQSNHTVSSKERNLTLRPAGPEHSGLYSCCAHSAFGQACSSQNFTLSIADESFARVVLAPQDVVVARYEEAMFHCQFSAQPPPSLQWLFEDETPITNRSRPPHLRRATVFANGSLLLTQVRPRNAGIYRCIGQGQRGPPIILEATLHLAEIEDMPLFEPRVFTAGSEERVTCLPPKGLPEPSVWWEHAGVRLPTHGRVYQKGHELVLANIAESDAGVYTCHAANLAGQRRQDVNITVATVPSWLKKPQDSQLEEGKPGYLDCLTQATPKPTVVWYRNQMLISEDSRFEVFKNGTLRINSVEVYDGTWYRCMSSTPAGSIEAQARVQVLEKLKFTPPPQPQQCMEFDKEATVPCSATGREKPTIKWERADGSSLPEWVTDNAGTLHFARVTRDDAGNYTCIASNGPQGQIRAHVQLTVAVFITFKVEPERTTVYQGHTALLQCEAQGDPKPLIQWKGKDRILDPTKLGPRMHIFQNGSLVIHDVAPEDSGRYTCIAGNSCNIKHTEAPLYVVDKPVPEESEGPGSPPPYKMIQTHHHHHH

T2: human PTK7 on cells (tumor cells endogenously expressing PTK7); CHO-hPTK7, CHO-S-hPTK7 and 293T-hPTK7 … (human, UniProt Q13308 31-1070)
T2 construct: whole, on cells; The cell line of each value is named under assay; also called H1299; H358
T2 sequence (looked up): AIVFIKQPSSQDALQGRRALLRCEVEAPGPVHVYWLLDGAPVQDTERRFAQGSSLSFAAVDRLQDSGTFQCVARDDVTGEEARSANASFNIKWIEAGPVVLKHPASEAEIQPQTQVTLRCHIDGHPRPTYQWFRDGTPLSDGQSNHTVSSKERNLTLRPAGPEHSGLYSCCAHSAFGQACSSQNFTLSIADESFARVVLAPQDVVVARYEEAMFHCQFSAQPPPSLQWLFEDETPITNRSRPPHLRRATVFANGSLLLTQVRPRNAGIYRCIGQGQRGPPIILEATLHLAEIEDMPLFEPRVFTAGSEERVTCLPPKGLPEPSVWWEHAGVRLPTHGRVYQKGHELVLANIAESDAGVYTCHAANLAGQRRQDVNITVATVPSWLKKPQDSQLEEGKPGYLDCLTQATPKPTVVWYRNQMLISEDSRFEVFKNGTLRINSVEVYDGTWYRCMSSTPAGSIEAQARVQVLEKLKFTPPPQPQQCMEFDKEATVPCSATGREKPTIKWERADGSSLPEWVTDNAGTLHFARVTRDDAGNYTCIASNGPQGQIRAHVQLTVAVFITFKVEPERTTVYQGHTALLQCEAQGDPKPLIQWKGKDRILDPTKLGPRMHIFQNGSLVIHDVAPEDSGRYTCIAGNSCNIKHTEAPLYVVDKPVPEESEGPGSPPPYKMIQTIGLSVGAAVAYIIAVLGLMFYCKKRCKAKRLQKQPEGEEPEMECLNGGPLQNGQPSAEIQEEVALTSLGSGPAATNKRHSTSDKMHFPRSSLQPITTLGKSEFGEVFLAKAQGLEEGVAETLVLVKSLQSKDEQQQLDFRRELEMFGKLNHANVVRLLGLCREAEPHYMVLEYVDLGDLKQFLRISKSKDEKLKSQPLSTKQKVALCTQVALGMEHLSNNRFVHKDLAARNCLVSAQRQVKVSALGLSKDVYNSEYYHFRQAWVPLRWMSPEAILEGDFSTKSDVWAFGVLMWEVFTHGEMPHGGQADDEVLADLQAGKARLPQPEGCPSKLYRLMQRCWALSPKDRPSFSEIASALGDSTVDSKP

B1: 101A6HZ (anti-human PTK7 humanized antibody) (antibody, human IgG1, kappa)
heavy: not shown
light: DIVMTQSPDSLAVSLGERATINCKASQDVGSAVIWYQQKPGQSPKLLIYWASTRHTGVPDRFSGSGSGTDFTLTISSLQAEDVAVYYCQQYSSYPLTFGQGTKLEIKRTVAAPSVFIFPPSDEQLKSGTASVVCLLNNFYPREAKVQWKVDNALQSGNSQESVTEQDSKDSTYSLSSTLTLSKADYEKHKVYACEVTHQGLSSPVTKSFNRGEC
B2: Hu24 (PTK7 control antibody, taken from Hu24 in the Patent CN201580030255) (antibody)
chain 1: QVQLVQSGPEVKKPGASVKVSCKASGYTFTDYAVHWVRQAPGKRLEWIGVISTYNDYTYNNQDFKGRVTMTRDTSASTAYMELSRLRSEDTAVYYCARGNSYFYALDYWGQGTSVTVSS
chain 2: EIVLTQSPATLSLSPGERATLSCRASESVDSYGKSFMHWYQQKPGQAPRLLIYRASNLESGIPARFSGSGSGTDFTLTISSLEPEDFAVYYCQQSNEDPWTFGGGTKLEIK

Key:
[1] = molecular target: T1, human PTK7 protein (extracellular …); experiment: competition ELISA on coated human PTK7 protein; competitor: biotin-labelled 101A6HZ at a fixed concentration
Experimental: The human PTK7 protein was diluted to reach 1 μg/ml by using the CBS coating liquid, coated by a 96-well microtiter plate at a density of 100 μl/well, and stood overnight at 4° C.; and after the plate was washed and blocked, the biotin-labeled antibody and the to-be-detected antibody were added, and incubated for 2 h at room temperature. After the plate was washed, the secondary antibody was added for incubation, and finally was subjected to color development, then the reaction was terminated, and the absorbance at OD₄₅₀ nm was read by the microplate reader. The original data was imported into software for nonlinear curve fitting (four parameters).

[2] = molecular target: T2, human PTK7 on cells (tumor cells …); experiment: competition flow cytometry on 293T-hPTK7 cells, streptavidin-PE; competitor: biotin-labelled Hu24

Binder	IC50 (read off the curve) [1]	IC50 (read off the curve) [2]
B1	~0.08 µg/mL	
B2		~0.3 µg/mL
